Laboratory results reported in patent publication US20160060356A1 (Hoffmann-La Roche, published 2016).

Key:
[1] = target: T1, murine Fibroblast Activation Protein (FAP) on stably transfected HEK293 cells (mouse, UniProt P97321 1-761); experiment: FACS on HEK293 cells stably transfected with murine FAP
T1 construct: whole, on cells; also called murine FAP

[2] = target: T2, human Fibroblast Activation Protein (FAP) on cells or in tissue (human, UniProt Q12884 1-760); experiment: FACS on HEK293 cells stably transfected with human FAP
T2 construct: whole, on cells; Expressed on stably transfected HEK293 cells, on the human fibroblast cell line GM05389, on human tumor cell lines and in human tumor tissue sections; also called human FAP; hFAP

[3] = target: T3, Cynomolgus Fibroblast Activation Protein (FAP) ectodomain with C-terminal poly-lysine and 6xHis-tag (cynomolgus monkey, UniProt Q12884 27-760 (human entry)); experiment: SPR (Biacore T100), His-tagged FAP captured by anti-His antibody, IgG as analyte (avidity)
T3 construct: also called cyno FAP; Cynomolgus FAP extracellular domain
Procedure: (§1) For immobilization carboxymethylated dextran biosensor chips (CMS, GE Healthcare) were activated with N-ethyl-N′-(3-dimethylaminopropyl)-carbodiimide hydrochloride (EDC) and N-hydroxysuccinimide (NHS) according to the supplier's instructions. The Penta His antibody was diluted with 10 mM sodium acetate, pH 5, to 40 μg/ml before injection at a flow rate of 10 μl/minute to achieve approximately 9000 response units (RU) of coupled protein. Following the injection of the ligand, 1 M ethanolamine was injected to block unreacted groups.
(§2) For kinetics measurements, human, mouse or Cynomolgus FAP extracellular domain was injected at 10 μl/min at 10 nM for 20 s (for Fab fragments) or at 20 nM for 25 s (for IgG) and was captured via its His tag by the immobilized penta His antibody. […] The following parameters were applied: Association time 180 s, dissociation 300 s (for Fab) or 900 s (for IgG), regeneration with 10 mM glycine pH 2 for 60 s between each cycle. Association rates (kₒₙ) and dissociation rates (koff) were calculated using a simple one-to-one Langmuir binding model (BIACORE® T100 Evaluation Software version 1.1.1) by simultaneously fitting the association and dissociation sensorgrams (model parameters were local Rmax and RI=0). The equilibrium dissociation constant (KD) was calculated as the ratio koff/kₒₙ.

[4] = target: T4, murine Fibroblast Activation Protein (FAP) ectodomain with C-terminal poly-lysine and 6xHis-tag (mouse, UniProt P97321 27-761); experiment: as above
T4 construct: also called mu FAP; murine FAP
Procedure: as §1, §2

[5] = target: T5, human Fibroblast Activation Protein (FAP) ectodomain with C-terminal poly-lysine and 6xHis-tag (human, UniProt Q12884 27-760); experiment: as above
T5 construct: Recombinant soluble antigen used in selections, ELISA and SPR; also called hu FAP; human FAP
Procedure: as §1, §2

[6] = target: T6, HER2 on stably transfected HEK293 cells (UniProt P04626 23-1255, limits assumed); experiment: FACS on HEK293 cells stably expressing HER2, PE goat anti-human IgG Fc gamma detection
T6 construct: whole, on cells

[7] = target: T7, DPPIV (CD26) on stably transfected HEK293 cells (UniProt P27487 1-766); experiment: FACS on HEK293 cells stably expressing DPPIV, PE goat anti-human IgG Fc gamma detection
T7 construct: whole, on cells; also called dipeptidyl peptidase IV

[8] = target: T3, Cynomolgus Fibroblast Activation …; experiment: SPR (Biacore T100), His-tagged FAP captured by anti-His antibody, Fab as analyte
Procedure: as §1, §2

[9] = target: T4, murine Fibroblast Activation Protein …; experiment: as above
Procedure: as §1, §2

[10] = target: T5, human Fibroblast Activation Protein …; experiment: as above
Procedure: as §1, §2

B1: 4G8 human IgG1 antibody (antibody, V domains shown)
VH: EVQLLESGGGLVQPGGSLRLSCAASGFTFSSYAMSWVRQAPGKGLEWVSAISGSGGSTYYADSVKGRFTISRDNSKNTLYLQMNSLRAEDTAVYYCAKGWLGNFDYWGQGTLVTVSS
VL: EIVLTQSPGTLSLSPGERATLSCRASQSVSRSYLAWYQQKPGQAPRLLIIGASTRATGIPDRFSGSGSGTDFTLTISRLEPEDFAVYYCQQGQVIPPTFGQGTKVEIK
notes: Wild-type and glycoengineered versions were used in the ADCC assay; also called IgG 4G8; 4G8 IgG
[1]
  EC50: 1.7 nM
[2]
  EC50: 5 nM
[3]
  Kd: 0.059 nM
[4]
  Kd: 0.001 nM
[5]
  Kd: 0.051 nM
[6]
  binding result: no binding (tested: 30 µg/ml)
[7]
  binding result: no binding (tested: 30 µg/ml)

B2: 4B3 human IgG1 antibody (antibody, V domains shown)
VH: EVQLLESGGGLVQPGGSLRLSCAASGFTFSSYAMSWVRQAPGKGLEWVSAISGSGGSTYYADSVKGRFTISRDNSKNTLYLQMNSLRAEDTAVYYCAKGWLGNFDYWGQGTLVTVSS
VL: EIVLTQSPGTLSLSPGERATLSCRASQSVSSNYLAWYQQKPGQAPRLLIYGAYIRATGIPDRFSGSGSGTDFTLTISRLEPEDFAVYYCQQGQVIPPTFGQGTKVEIK
notes: Human IgG1 format; also called 4B3 IgG
[1]
  EC50: 1.6 nM
[2]
  EC50: 5.5 nM
[6]
  binding result: no binding (tested: 30 µg/ml)
[7]
  binding result: no binding (tested: 30 µg/ml)

B3: 3F2 human IgG1 antibody (antibody, V domains shown)
VH: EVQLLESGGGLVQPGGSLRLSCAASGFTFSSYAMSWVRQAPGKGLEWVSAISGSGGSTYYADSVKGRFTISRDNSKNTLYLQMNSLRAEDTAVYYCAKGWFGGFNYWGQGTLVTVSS
VL: EIVLTQSPGTLSLSPGERATLSCRASQSVTSSYLAWYQQKPGQAPRLLINVGSRRATGIPDRFSGSGSGTDFTLTISRLEPEDFAVYYCQQGIMLPPTFGQGTKVEIK
notes: Wild-type and glycoengineered versions were used in the ADCC assay; also called IgG 3F2; 3F2 IgG
[1]
  EC50: 1 nM
[2]
  EC50: 4.8 nM
[3]
  Kd: 0.042 nM
[4]
  Kd: 0.029 nM
[5]
  Kd: 0.039 nM
[6]
  binding result: no binding (tested: 30 µg/ml)
[7]
  binding result: no binding (tested: 30 µg/ml)

B4: 4G8 Fab fragment (Fab, V domains shown)
VH: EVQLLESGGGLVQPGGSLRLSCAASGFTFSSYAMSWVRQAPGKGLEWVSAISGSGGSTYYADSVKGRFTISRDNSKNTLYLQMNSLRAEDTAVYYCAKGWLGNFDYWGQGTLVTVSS
VL: EIVLTQSPGTLSLSPGERATLSCRASQSVSRSYLAWYQQKPGQAPRLLIIGASTRATGIPDRFSGSGSGTDFTLTISRLEPEDFAVYYCQQGQVIPPTFGQGTKVEIK
notes: also called Fab fragment 4G8; clone 4G8
[8]
  Kd: 56 nM
[9]
  Kd: ≤ 7 nM
[10]
  Kd: 74 nM

B5: 3F2 Fab fragment (Fab, V domains shown)
VH: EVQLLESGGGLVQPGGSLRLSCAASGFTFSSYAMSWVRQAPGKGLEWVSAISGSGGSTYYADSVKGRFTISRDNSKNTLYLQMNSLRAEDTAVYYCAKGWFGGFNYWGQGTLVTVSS
VL: EIVLTQSPGTLSLSPGERATLSCRASQSVTSSYLAWYQQKPGQAPRLLINVGSRRATGIPDRFSGSGSGTDFTLTISRLEPEDFAVYYCQQGIMLPPTFGQGTKVEIK
notes: also called Fab fragment 3F2; clone 3F2
[8]
  Kd: 11 nM
[9]
  Kd: 14 nM
[10]
  Kd: 13 nM
